Tests used:
[1] = target: Ozz–EloBC subcomplex (human) (UniProt Q9BR09); test: AUC; sedimentation velocity, 50,000 rpm, 20 °C, interference optics; 10 mM sodium phosphate, 1.8 mM potassium phosphate pH 7.2, 137 mM NaCl, 0.27 mM KCl; c(s) and two-dimensional c(s,f/f0) analysis of the same data; co-purified subcomplexes alone (Ozz–EloBC 0.35 or 1.00 mg/ml, Cul5–Rbx1 0.21 mg/ml) and their 1:1 mixture (0.75 mg/ml)
[2] = target: CRL5^Ozz, reconstituted five-component complex (Ozz–EloBC + Cul5–Rbx1) (human) (UniProt Q9BR09); test: as above
[3] = target: CRL5^Ozz, reconstituted five-component complex (Ozz–EloBC + Cul5–Rbx1) (human) (UniProt Q9BR09); test: SEC; purified Ozz–EloBC and Cul5–Rbx1 mixed 1:1; Superose 6 10/300GL, 50 mM Tris pH 7.6, 150 mM NaCl, 0.3 ml/min; fractions on SDS gels stained with SYPRO Ruby
[4] = target: CRL5^Ozz, reconstituted five-component complex (Ozz–EloBC + Cul5–Rbx1) (human) (UniProt Q9BR09); test: co-sedimentation; 15–45% glycerol gradient ultracentrifugation with micro-fractionation; 20 mM Tris–HCl pH 7.6, 150 mM NaCl; 55,000 r.p.m., 8 h (also 12 h), 4 °C; fractions on SDS gels stained with SYPRO Ruby, densitometry
[5] = target: Ozz–EloBC subcomplex (human) (UniProt Q9BR09); test: AUC; sedimentation velocity, isotherm of signal-weighted-average s (3 to 7 S) of Ozz–EloBC at 1.8 to 13.3 μM; reversible monomer–dimer self-association model (dimer to monomers of the 1:1:1 complex), SEDPHAT; same buffer, 20 °C

Sequence of Cul5–Rbx1 subcomplex (Q93034 whole entry): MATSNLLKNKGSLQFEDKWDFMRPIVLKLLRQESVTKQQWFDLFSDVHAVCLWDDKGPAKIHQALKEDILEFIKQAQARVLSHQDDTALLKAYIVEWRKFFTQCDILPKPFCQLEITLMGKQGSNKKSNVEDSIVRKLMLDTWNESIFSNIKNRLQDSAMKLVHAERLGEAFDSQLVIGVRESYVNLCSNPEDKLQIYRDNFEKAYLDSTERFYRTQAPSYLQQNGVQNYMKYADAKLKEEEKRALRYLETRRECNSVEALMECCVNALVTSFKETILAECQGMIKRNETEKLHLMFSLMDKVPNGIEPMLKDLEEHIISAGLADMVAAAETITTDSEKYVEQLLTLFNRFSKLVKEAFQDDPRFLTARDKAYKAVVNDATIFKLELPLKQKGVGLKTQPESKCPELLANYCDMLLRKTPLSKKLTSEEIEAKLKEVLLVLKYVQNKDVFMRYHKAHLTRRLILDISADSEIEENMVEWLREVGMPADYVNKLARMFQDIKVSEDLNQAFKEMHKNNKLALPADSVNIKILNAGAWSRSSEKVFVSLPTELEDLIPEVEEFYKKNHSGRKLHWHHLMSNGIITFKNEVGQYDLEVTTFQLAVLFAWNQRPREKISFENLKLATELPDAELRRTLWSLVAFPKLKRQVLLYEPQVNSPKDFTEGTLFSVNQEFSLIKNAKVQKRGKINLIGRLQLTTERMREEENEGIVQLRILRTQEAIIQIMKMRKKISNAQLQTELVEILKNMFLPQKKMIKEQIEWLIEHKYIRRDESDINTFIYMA
Sequence of Cul5–Rbx1 subcomplex (P62877 whole entry): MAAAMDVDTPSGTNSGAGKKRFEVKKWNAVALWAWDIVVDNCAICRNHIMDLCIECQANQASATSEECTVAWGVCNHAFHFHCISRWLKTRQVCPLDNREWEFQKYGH

Substance | percent of total protein in the peak of the 1:1:1:1:1 complex, c(s) [1] | percent of total protein in the peak of the 1:1:1:1:1 complex, c(s,f/f0) [1] | stoichiometry N [1] | percent of total protein in the dimer peak, c(s) [2] | percent of total protein in the dimer peak, c(s,f/f0) [2] | stoichiometry N [2] | stoichiometry N [3] | stoichiometry N [4] | Kd [5] | percent of total protein in the dimer peak, c(s) [1] | percent of total protein in the dimer peak, c(s,f/f0) [1]
Cul5–Rbx1 subcomplex (from UniProt Q93034 1-780; P62877 1-108) | 55% | 48% | 1 | – | – | – | – | – | – | – | –
CRL5^Ozz, reconstituted five-component complex (Ozz–EloBC + Cul5–Rbx1) (from UniProt Q9BR09 1-285; Q15370 1-118; Q15369 1-112; Q93034 1-780; P62877 1-108) | – | – | – | 5% | 8% | 2 | 2 | 2 | – | – | –
Ozz–EloBC subcomplex (from UniProt Q9BR09 1-285; Q15370 1-118; Q15369 1-112) | – | – | 2 | – | – | – | – | – | 700 nM | 53% | 52%

Reference: paper PMC9098882
